This is an account of results in PMC8890709.

Assay [1] concerns the target GmALMT12/QUAC1 (aluminum-activated malate transporter 12 / quick anion channel 1 from Glycine max) (Glycine max (soybean)). Kind of assay: cryo-EM structure.
The target of assay [2] is GmALMT12/QUAC1 cytoplasmic helical domain (CHD, residues 221 to 537), wild type (Glycine max (soybean)). Kind of assay: SEC.

Turning to “GmALMT12/QUAC1 (aluminum-activated malate transporter 12 / quick anion channel 1 from Glycine max) (natural protein)”, the stoichiometry N (usually a count of units in the complex or per binding partner) in assay [1] was 2. Turning to “GmALMT12/QUAC1 cytoplasmic helical domain (CHD, residues 221 to 537), wild type (domain or fragment)”, the stoichiometry N in assay [2] is 2.
